The Kd is the free concentration of one partner at which half of the binding sites on the other are occupied at equilibrium, for simple one-to-one binding.

Experimental findings from the Immune Epitope Database (IEDB) are described below.

One experiment addresses HLA-A*26:02. Put plainly: IEDB peptide-MHC binding, purified MHC/direct/fluorescence; filed as Kd, often an IC50 or EC50 that approximates it; ≥ and ≤ were set here for values at or beyond the usual limits of such assays. Particulars: source organism: West Nile virus strain PTRoxo.
A further experiment deals with HLA-B*83:01. The experiment is described as follows: IEDB peptide-MHC binding, purified MHC/competitive/fluorescence; filed as Kd, often an IC50 or EC50 that approximates it; ≥ and ≤ were set here for values at or beyond the usual limits of such assays. The note with it: source organism: West Nile virus.
The target of another experiment is HLA-B*15:42. Described as above. The note with it: source organism: West Nile virus.
The target in another experiment is HLA-A*32:07. Described as above. The note with it: source organism: West Nile virus.
A further experiment addresses HLA-B*45:06. The description is as above. The note with it: source organism: West Nile virus.
A further experiment addresses HLA-A*32:15. The description is as above. The note with it: source organism: West Nile virus.
The target of the next experiment is HLA-B*48:01. The experiment is described as follows: IEDB peptide-MHC binding, purified MHC/direct/fluorescence; filed as Kd, often an IC50 or EC50 that approximates it; ≥ and ≤ were set here for values at or beyond the usual limits of such assays.
A further experiment addresses HLA-B*51:01. The experiment is described as above.
The target in experiment [1] is HLA-B*15:17. The experiment is described as above.
Experiment [2] has as its target HLA-B*15:01. The experiment is described as above.
In a further experiment the target is HLA-B*57:01. The description is as above.
In the next experiment the target is HLA-A*31:01. The description is as above.
Another experiment deals with HLA-A*11:01. The description is as above.
Another experiment has as its target HLA-B*40:01. Described as above.
Another experiment addresses HLA-B*46:01. Described as above.
The target in a further experiment is HLA-B*58:01. The description is as above.
For the next experiment, the target named is HLA-B*38:01. The description is as above.
The next experiment addresses HLA-B*27:05. The experiment is described as above.
The next experiment addresses HLA-B*18:01. The experiment is described as above.
Experiment [3] has as its target HLA-A*02:01. The description is as above.
Experiment [4] concerns the target HLA-A*69:01. The experiment is described as above.
For experiment [5], the target named is HLA-A*03:01. Described as above.
Experiment [6] addresses HLA-A*01:01. The experiment is described as follows: IEDB peptide-MHC binding, purified MHC/competitive/fluorescence; filed as Kd, often an IC50 or EC50 that approximates it; ≥ and ≤ were set here for values at or beyond the usual limits of such assays. The note with it: source organism: Mycobacterium tuberculosis str. Haarlem.
For experiment [7], the target named is HLA-A*26:01. Put plainly: IEDB peptide-MHC binding, purified MHC/direct/fluorescence; filed as Kd, often an IC50 or EC50 that approximates it; ≥ and ≤ were set here for values at or beyond the usual limits of such assays. The note with it: source organism: Vibrio parahaemolyticus AQ3810.
For the next experiment, the target named is HLA-B*08:02. The experiment is described as above. Particulars: source organism: Vibrio parahaemolyticus AQ3810.
Experiment [8] concerns the target HLA-A*01:01. The experiment is described as above.
The next experiment addresses HLA-B*39:01. Described as above.
Experiment [9] addresses HLA-B*15:17. Put plainly: IEDB peptide-MHC binding, purified MHC/competitive/fluorescence; filed as Kd, often an IC50 or EC50 that approximates it; ≥ and ≤ were set here for values at or beyond the usual limits of such assays. The note with it: source organism: Vibrio parahaemolyticus RIMD 2210633.
Experiment [10] deals with HLA-B*15:01. The description is as above. Particulars: source organism: Vibrio parahaemolyticus RIMD 2210633.
Experiment [11] has as its target HLA-A*03:01. The description is as above. The note with it: source organism: Vibrio parahaemolyticus RIMD 2210633.
The next experiment addresses HLA-B*07:02. The experiment is described as follows: IEDB peptide-MHC binding, purified MHC/direct/fluorescence; filed as Kd, often an IC50 or EC50 that approximates it; ≥ and ≤ were set here for values at or beyond the usual limits of such assays. Particulars: source organism: Vibrio vulnificus YJ016.
Experiment [12] has as its target HLA-A*26:01. Put plainly: IEDB peptide-MHC binding, purified MHC/competitive/fluorescence; filed as Kd, often an IC50 or EC50 that approximates it; ≥ and ≤ were set here for values at or beyond the usual limits of such assays. Particulars: source organism: Vibrio vulnificus YJ016.
A further experiment deals with HLA-A*30:01. The experiment is described as above. Particulars: source organism: Vibrio vulnificus YJ016.
In experiment [13] the target is HLA-A*02:01. Described as above. Particulars: source organism: Vibrio vulnificus YJ016.
Experiment [14] has as its target HLA-A*69:01. The description is as above. Particulars: source organism: Vibrio vulnificus YJ016.
The mark [15] stands for this setting: source organism: Mycobacterium tuberculosis.
[16] abbreviates: source organism: Vibrio parahaemolyticus.
The mark [17] stands for this setting: source organism: Vibrio parahaemolyticus AQ3810.
Setting [18] is: source organism: Vibrio vulnificus YJ016.

With ETTNWLWAF, the Kd with HLA-A*26:02 is not above 0.001 µM; with HLA-B*83:01 it was not below 5 µM; in the experiment with HLA-B*15:42, not below 5 µM; in the experiment with HLA-A*32:07 it was 0.0263 µM; with HLA-B*45:06, not below 5 µM; in the experiment with HLA-A*32:15, 0.0251 µM.

In the case of GPAGYTAAL, the Kd with HLA-B*48:01 (setting [15]), with HLA-B*51:01 (setting [15]), with HLA-B*15:17 [1] (setting [15]), with HLA-B*15:01 [2] (setting [15]), with HLA-B*57:01 (setting [15]) and in the experiment with HLA-A*31:01 (setting [15]) was not below 20 µM each time. Moreover, the Kd in the experiment with HLA-A*11:01 (setting [15]), with HLA-B*40:01 (setting [15]), in the experiment with HLA-B*46:01 (setting [15]), in the experiment with HLA-B*58:01 (setting [15]), in the experiment with HLA-B*38:01 (source organism: Mycobacterium tuberculosis str. Haarlem) and in the experiment with HLA-B*27:05 (setting [15]) was not below 20 µM in each case. Also, the dissociation constant (Kd) in the experiment with HLA-B*18:01 (setting [15]), with HLA-A*02:01 [3] (setting [15]), with HLA-A*69:01 [4] (setting [15]), in the experiment with HLA-A*03:01 [5] (setting [15]) and with HLA-A*01:01 [6] was not below 20 µM throughout.

Take RSTLANGWY: the dissociation constant Kd in the experiment with HLA-A*26:01 [7] was 0.59 µM; in the experiment with HLA-B*48:01 (setting [16]), not below 20 µM; with HLA-B*57:01 (setting [16]), 0.268 µM; with HLA-A*31:01 (setting [16]), not below 20 µM; with HLA-A*11:01 (setting [16]), not below 20 µM; in the experiment with HLA-B*40:01 (setting [16]) it was not below 20 µM. Moreover, the Kd with HLA-B*08:02 was not below 20 µM; with HLA-B*46:01 (setting [16]) it was not below 20 µM; with HLA-B*58:01 (setting [16]), 0.059 µM; with HLA-A*01:01 [8] (setting [16]), 0.274 µM; in the experiment with HLA-B*38:01 (setting [17]), not below 20 µM; in the experiment with HLA-B*27:05 (setting [16]), not below 20 µM. Besides, the Kd was not below 20 µM in the experiment with HLA-B*39:01 (setting [17]); not below 20 µM in the experiment with HLA-B*18:01 (setting [16]); not below 20 µM with HLA-A*02:01 [3] (setting [16]); not below 20 µM with HLA-A*69:01 [4] (setting [16]); 0.0012 µM with HLA-B*15:17 [9]; 0.0942 µM with HLA-B*15:01 [10]. In the experiment with HLA-A*03:01 [11], this sequence yielded a Kd of 1.48 µM.

IVAQGIAAL: the Kd with HLA-B*07:02 is 0.086 µM; with HLA-B*48:01 (setting [18]), not below 20 µM; with HLA-B*51:01 (setting [18]), not below 20 µM; with HLA-B*15:17 [1] (setting [18]) it was 0.0475 µM; with HLA-B*15:01 [2] (setting [18]) it was 0.048 µM; in the experiment with HLA-B*57:01 (setting [18]) it was not below 20 µM. Besides, the Kd was not below 20 µM with HLA-A*31:01 (setting [18]); not below 20 µM with HLA-A*11:01 (setting [18]); not below 20 µM with HLA-B*40:01 (setting [18]); 9 µM in the experiment with HLA-B*46:01 (setting [18]); not below 20 µM with HLA-B*58:01 (setting [18]); not below 20 µM in the experiment with HLA-A*01:01 [8] (setting [18]). Besides, the Kd with HLA-B*38:01 (setting [18]) was not below 20 µM; with HLA-B*27:05 (setting [18]), not below 20 µM; with HLA-B*39:01 (setting [18]), 0.22 µM; in the experiment with HLA-B*18:01 (setting [18]) it was not below 20 µM; with HLA-A*03:01 [5] (setting [18]) it was not below 20 µM; with HLA-A*26:01 [12], not below 20 µM. The values for the Kd in the experiment with HLA-A*30:01, with HLA-A*02:01 [13] and with HLA-A*69:01 [14] were not below 20 µM, 0.0181 µM and 0.0077 µM, respectively.
